Consider one molecule from patent publication US20240343788A1 (published 2024).

This assay concerns the target T1, A155.
T1 construct: also called antibody-based multispecific antagonist A155
Kind of assay: BLI (Octet RED96), antagonist captured on biosensor, ligand in solution. The source says: The binding sensorgrams were collected using the 8-channel detection mode on the biosensor.
Background: BLI is a label-free optical method that tracks binding on a fibre tip over time.

B1: TGF-β3 (ligand)
chain: ALDTNYCFRNLEENCCVRPLYIDFRQDLGWKWVHEPKGYYANFCSGPCPYLRSADTTHSTVLGLYNTLNPEASASPCCVPQDLEPLTILYYVGRTPKVEQLSNMVVKSCKCS
notes: also called TGF-33 (misprint in the text)
For orientation: Kd means the equilibrium constant for the complex coming apart. Read a low Kd as higher affinity. Turning to B1, the Kd is ~20 nM.
